Data from patent US20130324474A1 (Eli Lilly, published 2013).
Where a chain is given by its changes, count along the chain named. Names may count otherwise.

B1: CHO-Δ31-GDNF (SEQ ID NO: 8) (ligand)
chain: RGQRGKNRGCVLTAIHLNVTDLGLGYETKEELIFRYCSGSCDAAETTYDKILKNLSRNRRLVSDKVGQACCRPIAFDDDLSFLDDNLVYHILRKHSAKRCGCI
modifications: N-glycosylated at N49 (numbering of mature GDNF)
notes: Expressed in CHO cells; also called CHO-Δ31-GDNFv; WT CHO Δ31-GDNFv
B2: CHO-Δ31-N38Q-D95E-GDNF (SEQ ID NO: 9) (ligand)
chain: B1 chain with N7Q, D64E
modifications: N-glycosylated at N49 (numbering of mature GDNF)
notes: Expressed in CHO cells; also called CHO-Δ31-N38Q-D95E-GDNFv; GDNF variant 2

Experiments:
[1] = biological target: T1, Recombinant Human GFRα-1/GDNF Rα-1 Fc Chimera (human, UniProt P56159 25-429); test: SPR (Biacore 2000), GFRα1-Fc captured on protein A, GDNFv as analyte, 1:1 Langmuir, 25 C
T1 construct: Purchased Fc chimera; It was captured on protein A in Biacore and coated on the plate in ELISA; also called GFRα1-Fc; recombinant human GFRα1-Fc chimera, carrier-free; not shown: Fc part of a purchased Fc chimera
T1 sequence (looked up): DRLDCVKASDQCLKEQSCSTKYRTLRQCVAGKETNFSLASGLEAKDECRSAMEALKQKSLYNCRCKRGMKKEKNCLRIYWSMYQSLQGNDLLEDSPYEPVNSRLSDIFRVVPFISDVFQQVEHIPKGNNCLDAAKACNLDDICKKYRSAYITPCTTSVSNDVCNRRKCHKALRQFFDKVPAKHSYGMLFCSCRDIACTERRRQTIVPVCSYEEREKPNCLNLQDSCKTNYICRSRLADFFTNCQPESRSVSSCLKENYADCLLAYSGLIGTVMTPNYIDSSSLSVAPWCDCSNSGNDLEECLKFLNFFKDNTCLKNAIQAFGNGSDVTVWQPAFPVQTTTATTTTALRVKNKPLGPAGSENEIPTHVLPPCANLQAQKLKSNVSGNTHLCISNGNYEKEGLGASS
Protocol: (§1) A Biacore® 2000 instrument is used to measure the binding kinetics of GDNFv to human and rat GDNF family receptors (GFRα1 and GFRα2). Measurements are performed at 25° C. Samples are dissolved in HBS-EP buffer (150 mM sodium chloride, 3 mM EDTA, 0.005% (w/v) surfactant P-20, pH 7.4). Protein A, Staphylococcus aureus is immobilized on flow cells 1 to 4 of a CM4 sensor chip (GE Healthcare #BR-1005-39) at a level of ˜200 response units (RUs) using amine coupling chemistry to capture GFR Fc chimera (Recombinant Human GFRα-1/GDNF Rα-1 Fc Chimera; Recombinant Human GFRα-2/GDNF Rα-2 Fc Chimera; Recombinant Rat GFRα-1/GDNF Rα-1 Fc Chimera; Recombinant Mouse GFRα-2/GDNF Rα-2 Fc Chimera).
(§2) Binding is evaluated using multiple cycles. Each cycle consists of the following steps: 1) injection of about 10 μL of GFR at a concentration of ˜1.0 μg/mL and a flow rate of 10 μL/min., aiming at a capture of 120-150 RUs; 2) injection of 250 μL of GDNFv at a flow rate of 50 μL/min., in a final concentration rage between 10 nM and 0.04 nM followed by […]. for dissociation; and 3) regeneration using about 30 μL of 10 mM glycine hydrochloride, pH 1.5. Association and dissociation rates for each cycle are evaluated using a “1:1 (Langmuir) binding” model in the BIAevaluation software, version 4.1.

[2] = biological target: T2, Recombinant Rat GFRα-1/GDNF Rα-1 Fc Chimera (rat, UniProt Q62997 25-445); test: SPR (Biacore 2000), rat GFRα1-Fc captured on protein A, GDNFv as analyte, 1:1 Langmuir, 25 C
T2 construct: Purchased Fc chimera; not shown: Fc part of a purchased Fc chimera
T2 sequence (looked up): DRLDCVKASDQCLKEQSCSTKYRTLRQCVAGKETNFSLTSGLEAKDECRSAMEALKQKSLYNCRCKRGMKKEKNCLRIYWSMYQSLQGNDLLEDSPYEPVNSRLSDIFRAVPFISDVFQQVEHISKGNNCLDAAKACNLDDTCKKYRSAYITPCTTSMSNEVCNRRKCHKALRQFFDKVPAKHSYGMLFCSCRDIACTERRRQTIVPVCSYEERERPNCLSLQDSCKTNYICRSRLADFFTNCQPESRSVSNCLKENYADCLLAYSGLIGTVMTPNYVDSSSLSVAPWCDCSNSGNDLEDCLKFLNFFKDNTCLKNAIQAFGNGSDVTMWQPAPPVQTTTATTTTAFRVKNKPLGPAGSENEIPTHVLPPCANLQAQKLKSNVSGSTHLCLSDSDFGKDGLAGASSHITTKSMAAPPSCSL
Protocol: as §1, §2

[3] = biological target: T1, Recombinant Human GFRα-1/GDNF Rα-1 Fc …; test: ELISA, plate-bound human GFRα1-Fc; upper end of the 95% confidence range, n = 14
Protocol: (§3) Each well of a 96-well plate (Greiner 655081 Immunobind ELISA plates) is coated with 70 μl of human GFRα1 (recombinant human GFRα1-Fc chimera, carrier-free) at 1 μg/ml in carbonate buffer, pH 9.6. If an irrelevant receptor is coated, it is an irrelevant Fc chimera and is coated at the same concentration as GFRα1. The plates are sealed and incubated at 4° C. overnight. The wells are aspirated and washed twice with washing buffer (20 mM Tris (hydroxymethyl) aminomethane, pH 7.4, 0.15 M NaCl, 0.1% Tween-20), using an automatic plate washer. The plates are blocked with 200 μl blocking buffer per well (3% Carnation Instant milk in the above washing buffer) for at least 1 hour at room temperature. Plates are washed twice with washing buffer. […]
(§4) A 50 μl aliquot of horseradish peroxidase-conjugated streptavidin (Jackson ImmunoResearch, catalog #016-030-084), diluted 1:1000 in blocking buffer, is added to each well and incubated for 20-30 minutes at room temperature. […] The absorbance of the wells is read at 490 nm on a Molecular Devices SpectraMax250 plate reader. The average absorbance for the triplicate wells for each condition are determined, and the resulting values are processed for EC₅₀ calculation with Graph Pad Prism software to provide a 95% confidence range.

[4] = biological target: T1, Recombinant Human GFRα-1/GDNF Rα-1 Fc …; test: ELISA, plate-bound human GFRα1-Fc; upper end of the 95% confidence range, n = 4
Protocol: as §3, §4

[5] = biological target: T1, Recombinant Human GFRα-1/GDNF Rα-1 Fc …; test: ELISA, plate-bound human GFRα1-Fc; lower end of the 95% confidence range, n = 4
Protocol: as §3, §4

Binder	Kd [1]	koff [1]	kon [1]	Kd [2]	koff [2]	kon [2]	EC50 [3]	EC50 [4]	EC50 [5]
B1	0.029 nM	9e-05 s⁻¹	3.8e+06 M⁻¹ s⁻¹	0.044 nM	0.00024 s⁻¹	5.6e+06 M⁻¹ s⁻¹	0.3 to 0.6 nM		
B2	0.03 nM	0.00011 s⁻¹	4.5e+06 M⁻¹ s⁻¹	0.02 nM	0.00019 s⁻¹	9.4e+06 M⁻¹ s⁻¹		0.3 to 1.9 nM	0.3 to 1.9 nM
